Data on five compounds can be found in paper PMC8307404, “Crystal Structure-Guided Design of Bisubstrate Inhibitors and Photoluminescent Probes for Protein Kinases of the PIM Family” (Molecules, 2021).

Structures are written as SMILES. Square brackets hold non-standard residues; d marks the D form. Peptide text beside a SMILES is read from it. * marks the point of attachment. X3 = O=C(CCCCCNCc1nc2c(sc3cc(Br)cnc32)c(=O)[nH]1)*

Holding throughout (experiment): Kinase profiling (radiometric filter-binding)
Common to all, as to type: biochemical

For series [1], the target named is BTK (Homo sapiens, UniProt Q06187). Conditions: 1 µM inhibitor, read-out: Residual activity, %. Put shortly: (§1)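 Activity remaining (% of control without inhibitor) at 1 µM final compound; human kinases, ATP ≤ KM, radiometric filter binding.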
For series [2], the target named is CK1δ (Homo sapiens, UniProt P48730). The conditions noted are these: 1 µM inhibitor, read-out: Residual activity, %. Summed up: as §1
Series [3] deals with ERK1 (Homo sapiens, UniProt P27361). Conditions: ERK1, 1 µM inhibitor; read-out: Residual activity, %. Summed up: as §1
In series [4] the target is ERK2 (Homo sapiens, UniProt P28482). Conditions: ERK2, 1 µM inhibitor; read-out: Residual activity, %. Put shortly: as §1
Series [5] addresses HIPK1 (Homo sapiens, UniProt Q86Z02). Conditions: HIPK1, 1 µM inhibitor; read-out: Residual activity, %. Summed up: as §1
In series [6] the target is MARK3 (Homo sapiens, UniProt P27448). The conditions noted are these: MARK3, 1 µM inhibitor; read-out: Residual activity, %. Summed up: as §1
Series [7] addresses T1, MKK6 (Homo sapiens, UniProt P52564).
T1 sequence (P52564 1-334): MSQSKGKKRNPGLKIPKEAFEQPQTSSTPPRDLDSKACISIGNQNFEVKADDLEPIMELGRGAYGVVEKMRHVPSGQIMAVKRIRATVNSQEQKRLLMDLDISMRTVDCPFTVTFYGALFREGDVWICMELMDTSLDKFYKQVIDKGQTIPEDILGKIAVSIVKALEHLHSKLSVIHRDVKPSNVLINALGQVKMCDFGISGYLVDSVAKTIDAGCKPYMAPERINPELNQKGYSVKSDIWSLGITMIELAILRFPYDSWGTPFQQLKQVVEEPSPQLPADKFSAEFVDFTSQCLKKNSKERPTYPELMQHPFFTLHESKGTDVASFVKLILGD
Conditions: MKK6, 1 µM inhibitor; read-out: Residual activity, %. Summed up: as §1

Series [8] has as its target MLK3 (Homo sapiens, UniProt Q16584). Conditions: MLK3, 1 µM inhibitor; read-out: Residual activity, %. Summed up:
as §1

The target in series [9] is MNK2 (Homo sapiens, UniProt Q9HBH9). Conditions: MNK2, 1 µM inhibitor; read-out: Residual activity, %. Summed up:
as §1

The target in series [10] is T2, PKD1 (Homo sapiens, UniProt Q15139).
T2 sequence (Q15139 1-912): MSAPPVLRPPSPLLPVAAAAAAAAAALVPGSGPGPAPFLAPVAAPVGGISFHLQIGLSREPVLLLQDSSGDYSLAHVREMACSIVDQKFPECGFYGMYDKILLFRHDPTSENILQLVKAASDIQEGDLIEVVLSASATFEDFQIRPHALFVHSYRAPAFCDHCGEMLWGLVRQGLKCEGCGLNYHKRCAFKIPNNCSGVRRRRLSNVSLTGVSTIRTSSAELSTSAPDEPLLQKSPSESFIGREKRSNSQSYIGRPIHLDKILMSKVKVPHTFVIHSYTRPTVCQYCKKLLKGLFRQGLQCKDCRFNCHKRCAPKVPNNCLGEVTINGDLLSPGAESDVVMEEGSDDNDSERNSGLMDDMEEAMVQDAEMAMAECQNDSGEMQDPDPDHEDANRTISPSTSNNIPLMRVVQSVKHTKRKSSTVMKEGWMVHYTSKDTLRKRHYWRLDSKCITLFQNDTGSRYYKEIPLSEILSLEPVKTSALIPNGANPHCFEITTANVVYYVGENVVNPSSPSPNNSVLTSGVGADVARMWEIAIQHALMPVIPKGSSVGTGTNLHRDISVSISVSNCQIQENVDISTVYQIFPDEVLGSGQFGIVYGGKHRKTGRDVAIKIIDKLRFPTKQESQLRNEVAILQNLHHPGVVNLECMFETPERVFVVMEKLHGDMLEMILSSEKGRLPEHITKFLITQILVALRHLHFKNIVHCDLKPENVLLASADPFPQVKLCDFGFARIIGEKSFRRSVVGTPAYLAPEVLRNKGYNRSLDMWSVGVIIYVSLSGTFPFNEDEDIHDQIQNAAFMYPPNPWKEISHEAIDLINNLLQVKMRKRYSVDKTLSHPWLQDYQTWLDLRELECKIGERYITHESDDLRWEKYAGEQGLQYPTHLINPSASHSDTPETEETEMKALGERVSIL
Conditions: PKD1, 1 µM inhibitor; read-out: Residual activity, %. Summed up: as §1

For series [11], the target named is TTBK1 (Homo sapiens, UniProt Q5TCY1). Conditions: TTBK1, 1 µM inhibitor; read-out: Residual activity, %. Summed up:
as §1

In series [12] the target is MAPKAP-K2 (Homo sapiens, UniProt P49137). Conditions: MAPKAP-K2, 1 µM inhibitor; read-out: Residual activity, %. Put shortly: as §1

HIPK1, sequence (Q86Z02 whole entry): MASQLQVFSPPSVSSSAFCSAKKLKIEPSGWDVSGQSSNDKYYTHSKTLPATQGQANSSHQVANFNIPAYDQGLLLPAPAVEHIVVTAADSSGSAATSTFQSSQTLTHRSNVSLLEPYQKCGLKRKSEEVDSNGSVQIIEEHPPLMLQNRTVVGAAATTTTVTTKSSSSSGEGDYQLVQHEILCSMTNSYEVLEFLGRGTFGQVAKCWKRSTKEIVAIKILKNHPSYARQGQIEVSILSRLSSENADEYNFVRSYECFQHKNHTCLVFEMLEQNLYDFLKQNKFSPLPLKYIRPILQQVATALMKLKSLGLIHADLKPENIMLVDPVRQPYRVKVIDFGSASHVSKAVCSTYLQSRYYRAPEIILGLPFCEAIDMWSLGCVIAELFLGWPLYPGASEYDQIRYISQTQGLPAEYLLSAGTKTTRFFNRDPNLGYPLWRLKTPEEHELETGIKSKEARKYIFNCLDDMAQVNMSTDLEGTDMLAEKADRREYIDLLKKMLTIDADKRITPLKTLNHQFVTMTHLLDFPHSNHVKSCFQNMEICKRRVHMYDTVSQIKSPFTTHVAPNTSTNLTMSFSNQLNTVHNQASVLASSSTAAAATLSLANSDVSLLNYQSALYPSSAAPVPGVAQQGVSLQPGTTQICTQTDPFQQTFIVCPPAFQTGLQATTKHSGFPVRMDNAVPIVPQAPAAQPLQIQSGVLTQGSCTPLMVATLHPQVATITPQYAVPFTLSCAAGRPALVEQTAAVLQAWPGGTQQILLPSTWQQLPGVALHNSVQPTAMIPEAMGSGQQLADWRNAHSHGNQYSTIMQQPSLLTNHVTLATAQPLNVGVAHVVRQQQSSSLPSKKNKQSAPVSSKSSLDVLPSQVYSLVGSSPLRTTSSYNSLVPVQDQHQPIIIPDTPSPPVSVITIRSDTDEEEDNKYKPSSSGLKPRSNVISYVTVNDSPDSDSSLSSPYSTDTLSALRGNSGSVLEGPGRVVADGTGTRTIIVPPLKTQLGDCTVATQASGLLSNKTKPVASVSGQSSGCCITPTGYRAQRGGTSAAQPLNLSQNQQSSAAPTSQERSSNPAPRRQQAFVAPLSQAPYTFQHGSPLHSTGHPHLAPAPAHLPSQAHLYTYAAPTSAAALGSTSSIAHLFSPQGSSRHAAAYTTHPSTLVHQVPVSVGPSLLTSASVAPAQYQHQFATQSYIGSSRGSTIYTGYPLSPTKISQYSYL
BTK, sequence (Q06187 whole entry): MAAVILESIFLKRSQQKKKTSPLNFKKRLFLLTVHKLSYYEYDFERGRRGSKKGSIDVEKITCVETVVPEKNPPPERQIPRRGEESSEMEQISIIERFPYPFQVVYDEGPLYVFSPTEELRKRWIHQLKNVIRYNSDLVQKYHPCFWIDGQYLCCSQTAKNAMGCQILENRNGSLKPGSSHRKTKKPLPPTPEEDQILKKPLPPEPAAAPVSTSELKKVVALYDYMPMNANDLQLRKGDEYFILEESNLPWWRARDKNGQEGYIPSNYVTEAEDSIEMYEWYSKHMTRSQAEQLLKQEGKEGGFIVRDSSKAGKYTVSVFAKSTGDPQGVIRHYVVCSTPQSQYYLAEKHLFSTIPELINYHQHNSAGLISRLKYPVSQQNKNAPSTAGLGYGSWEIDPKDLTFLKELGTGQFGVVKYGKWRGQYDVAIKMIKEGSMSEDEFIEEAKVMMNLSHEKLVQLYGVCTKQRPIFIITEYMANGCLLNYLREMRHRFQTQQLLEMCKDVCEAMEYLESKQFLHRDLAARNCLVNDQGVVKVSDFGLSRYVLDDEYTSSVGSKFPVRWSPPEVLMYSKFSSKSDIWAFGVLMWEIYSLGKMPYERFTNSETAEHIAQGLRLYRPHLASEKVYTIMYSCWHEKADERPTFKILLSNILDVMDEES
ERK2, sequence (P28482 whole entry): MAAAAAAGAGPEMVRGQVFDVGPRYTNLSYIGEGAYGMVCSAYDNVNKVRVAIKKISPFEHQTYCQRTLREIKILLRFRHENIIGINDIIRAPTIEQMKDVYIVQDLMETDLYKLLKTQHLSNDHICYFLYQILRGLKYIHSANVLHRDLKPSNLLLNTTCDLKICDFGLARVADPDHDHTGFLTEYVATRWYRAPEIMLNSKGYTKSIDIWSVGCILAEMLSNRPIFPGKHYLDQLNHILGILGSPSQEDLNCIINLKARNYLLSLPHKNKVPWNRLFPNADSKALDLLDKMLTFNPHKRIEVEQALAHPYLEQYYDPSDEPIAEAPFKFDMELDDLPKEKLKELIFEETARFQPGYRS
MLK3, sequence (Q16584 whole entry): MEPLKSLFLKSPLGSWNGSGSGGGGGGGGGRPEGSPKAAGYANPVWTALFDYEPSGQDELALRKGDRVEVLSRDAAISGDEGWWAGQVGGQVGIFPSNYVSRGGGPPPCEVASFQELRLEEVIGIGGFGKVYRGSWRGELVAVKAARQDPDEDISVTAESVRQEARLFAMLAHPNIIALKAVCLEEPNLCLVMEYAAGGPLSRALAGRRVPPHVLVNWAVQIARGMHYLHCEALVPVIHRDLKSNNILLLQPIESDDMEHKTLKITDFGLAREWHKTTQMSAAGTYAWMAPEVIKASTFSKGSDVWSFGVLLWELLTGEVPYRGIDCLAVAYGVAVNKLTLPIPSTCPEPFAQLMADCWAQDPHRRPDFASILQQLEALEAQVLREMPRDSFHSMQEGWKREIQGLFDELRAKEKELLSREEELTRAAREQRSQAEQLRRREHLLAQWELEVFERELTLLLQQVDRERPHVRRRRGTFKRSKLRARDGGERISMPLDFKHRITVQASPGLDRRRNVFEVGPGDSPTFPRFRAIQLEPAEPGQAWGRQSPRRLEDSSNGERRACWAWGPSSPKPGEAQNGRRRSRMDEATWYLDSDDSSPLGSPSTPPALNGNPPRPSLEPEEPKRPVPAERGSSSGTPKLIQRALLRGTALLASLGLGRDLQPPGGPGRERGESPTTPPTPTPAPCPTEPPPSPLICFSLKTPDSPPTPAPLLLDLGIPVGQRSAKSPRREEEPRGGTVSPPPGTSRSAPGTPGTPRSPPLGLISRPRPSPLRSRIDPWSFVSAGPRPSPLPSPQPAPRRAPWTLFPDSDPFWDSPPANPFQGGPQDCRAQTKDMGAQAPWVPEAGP
CK1δ, sequence (P48730 whole entry): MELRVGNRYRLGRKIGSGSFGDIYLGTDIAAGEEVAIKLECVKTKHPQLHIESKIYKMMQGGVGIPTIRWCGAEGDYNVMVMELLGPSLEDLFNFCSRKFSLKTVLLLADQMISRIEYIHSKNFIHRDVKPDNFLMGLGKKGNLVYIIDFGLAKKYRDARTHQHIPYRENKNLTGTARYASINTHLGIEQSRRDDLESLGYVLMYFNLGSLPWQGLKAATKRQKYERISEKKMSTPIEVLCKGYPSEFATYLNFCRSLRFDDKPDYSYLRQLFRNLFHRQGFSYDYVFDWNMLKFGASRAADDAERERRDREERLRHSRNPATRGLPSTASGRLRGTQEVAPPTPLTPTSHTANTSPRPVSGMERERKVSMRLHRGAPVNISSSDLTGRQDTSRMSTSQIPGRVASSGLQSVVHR
MNK2, sequence (Q9HBH9 whole entry): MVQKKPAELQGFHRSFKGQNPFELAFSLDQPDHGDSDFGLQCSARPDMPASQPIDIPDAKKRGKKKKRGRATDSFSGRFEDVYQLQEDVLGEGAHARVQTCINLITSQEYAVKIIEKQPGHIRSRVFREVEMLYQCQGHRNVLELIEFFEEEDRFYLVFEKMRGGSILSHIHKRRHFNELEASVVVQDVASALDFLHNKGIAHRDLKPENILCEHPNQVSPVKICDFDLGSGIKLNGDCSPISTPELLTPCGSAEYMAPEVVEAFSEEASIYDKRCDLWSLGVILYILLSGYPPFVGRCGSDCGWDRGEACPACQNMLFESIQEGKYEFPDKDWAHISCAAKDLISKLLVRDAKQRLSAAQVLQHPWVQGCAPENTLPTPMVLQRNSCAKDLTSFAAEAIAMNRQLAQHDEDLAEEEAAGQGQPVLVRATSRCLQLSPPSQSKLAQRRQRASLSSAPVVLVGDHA
MARK3, sequence (P27448 whole entry): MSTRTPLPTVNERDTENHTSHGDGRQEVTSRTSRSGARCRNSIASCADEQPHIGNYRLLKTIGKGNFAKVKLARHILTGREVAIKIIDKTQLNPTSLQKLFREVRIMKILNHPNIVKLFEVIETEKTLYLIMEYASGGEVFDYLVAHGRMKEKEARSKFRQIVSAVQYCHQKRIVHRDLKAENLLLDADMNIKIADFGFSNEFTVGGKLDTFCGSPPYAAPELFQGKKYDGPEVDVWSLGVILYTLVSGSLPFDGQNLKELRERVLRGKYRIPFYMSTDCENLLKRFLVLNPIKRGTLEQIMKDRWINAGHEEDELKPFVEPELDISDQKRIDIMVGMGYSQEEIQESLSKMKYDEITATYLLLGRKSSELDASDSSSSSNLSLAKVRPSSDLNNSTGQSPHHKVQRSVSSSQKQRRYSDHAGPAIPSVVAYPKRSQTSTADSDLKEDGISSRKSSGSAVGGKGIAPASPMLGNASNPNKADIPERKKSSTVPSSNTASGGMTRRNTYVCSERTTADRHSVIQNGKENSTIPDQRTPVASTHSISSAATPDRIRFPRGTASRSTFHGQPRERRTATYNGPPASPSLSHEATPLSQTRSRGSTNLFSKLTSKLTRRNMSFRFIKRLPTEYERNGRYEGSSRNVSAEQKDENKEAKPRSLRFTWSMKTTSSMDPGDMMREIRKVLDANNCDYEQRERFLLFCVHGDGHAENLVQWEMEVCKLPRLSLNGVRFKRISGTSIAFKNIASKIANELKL

For the compound `N=C(N)NCCC[C@@H](NC(=O)CCCCCNCc1nc2c(sc3cc(Br)cnc32)c(=O)[nH]1)C(=O)N[C@H](CCCNC(=N)N)C(=O)N[C@H](CCCNC(=N)N)C(=O)N[C@H](CCCNC(=N)N)C(=O)N[C@H](CCCNC(=N)N)C(=O)N[C@H](CCCNC(=N)N)C(=O)N[C@H](CCCCN)C(N)=O` [ARC-3126, BPTP-Ahx-(D-Arg)6-D-Lys-NH2] (X3-[dR][dR][dR][dR][dR][dR][dK]-NH2), the remaining activity at 1 µM in series [1] turned out to be 43 ± 2%; in [2] it was 99 ± 1%; in series [3] it was 84 ± 7%; in [4], 166 ± 1%; in [5], 95 ± 15%; in [6], 112 ± 17%. Further, the remaining activity at 1 µM in series [7] came to 105 ± 1%; in [8], 117 ± 10%; in series [9], 84 ± 17%; in series [10], 111 ± 10%; in series [11], 103 ± 4%.

In the case of `N=C(N)NCCC[C@@H](NC(=O)CNC(=O)[C@@H](CCCNC(=N)N)NC(=O)[C@@H](CCCNC(=N)N)NC(=O)CCCCCCCNCc1nc2c(sc3ccc(Br)cc32)c(=O)[nH]1)C(=O)N[C@H](CCCCN)C(N)=O` [Compound 2, BBTP-Aoc-(D-Arg)2-Gly-D-Arg-D-Lys-NH2], the remaining activity at 1 µM in series [1] was determined as 99 ± 20%; in series [2] it was 99 ± 3%; in [3], 125 ± 6%; in series [4], 102 ± 1%; in [5], 60 ± 12%; in [12] it was 107 ± 2%. In addition, the remaining activity at 1 µM in series [6] came out at 102 ± 7%; in series [7] it was 121 ± 3%; in series [8], 107 ± 1%; in [9], 47 ± 2%; in [10] it was 134 ± 14%; in series [11] it was 97 ± 7%.

With `N=C(N)NCCC[C@@H](NC(=O)CNC(=O)[C@@H](CCCNC(=N)N)NC(=O)[C@@H](CCCNC(=N)N)NC(=O)Cn1cc(CNCc2nc3c(sc4ccc(Br)cc43)c(=O)[nH]2)nn1)C(=O)N[C@H](CCCCN)C(N)=O` [Compound 3, BBTP-Amt-(D-Arg)2-Gly-D-Arg-D-Lys-NH2], the remaining activity at 1 µM in series [1] is 82 ± 1%; in series [2] it was 88 ± 12%; in series [3], 107 ± 6%; in series [4], 104 ± 5%; in [5] it was 60 ± 3%; in [12], 114 ± 4%. Further, the remaining activity at 1 µM in series [6] stood at 100 ± 8%; in series [7], 126 ± 10%; in series [8], 94 ± 2%; in series [9] it was 96 ± 10%; in [10], 82 ± 3%; in series [11] it was 99 ± 6%.

Consider `N=C(N)NCCC[C@@H](NC(=O)CCCCCNC(=O)Cn1cnc2c(I)c(I)c(I)c(I)c21)C(=O)N[C@H](CCCNC(=N)N)C(=O)N[C@H](CCCNC(=N)N)C(=O)N[C@H](CCCNC(=N)N)C(=O)N[C@H](CCCNC(=N)N)C(=O)N[C@H](CCCNC(=N)N)C(=O)N[C@H](CCCCN)C(N)=O` [ARC-3125, TIBI-CH2-C(=O)-Ahx-(D-Arg)6-D-Lys-NH2], for which the remaining activity at 1 µM was determined as 31 ± 2% in series [1]; 71 ± 4% in series [2]; 89 ± 7% in series [3]; 161 ± 4% in series [4]; 61 ± 1% in [5]; 51 ± 5% in series [12]. For the same compound, the remaining activity at 1 µM in [6] stood at 72 ± 1%; in series [7], 110 ± 10%; in series [8], 98 ± 2%; in series [9] it was 19 ± 4%; in [10], 18 ± 4%; in series [11], 123 ± 25%.

On to `N=C(N)NCCC[C@@H](NC(=O)CNC(=O)[C@@H](CCCNC(=N)N)NC(=O)[C@@H](CCCNC(=N)N)NC(=O)CCCCCCCNCc1nc2c(sc3cc(Br)cnc32)c(=O)[nH]1)C(=O)N[C@H](CCCCN)C(N)=O` [Compound 1, BPTP-Aoc-(D-Arg)2-Gly-D-Arg-D-Lys-NH2], for which the remaining activity at 1 µM in series [1] came to 106 ± 10%; in series [2] it was 104 ± 4%; in series [3], 119 ± 16%; in [4] it was 101 ± 14%; in [5], 111 ± 9%; in series [12] it was 107 ± 10%. Further, the remaining activity at 1 µM in [6] was determined as 100 ± 6%; in [7], 122 ± 2%; in series [8] it was 105 ± 5%; in series [9], 80 ± 3%; in series [10] it was 128 ± 13%; in series [11], 116 ± 5%.
